Each block holds one substance with its values, some of them ahead of it.
What was measured:
Assay in all cases: SPR
[1] = target: LRP1 CR doublet CR.22-23 (human)
[2] = target: LRP1 CR doublet CR.27-28 (human)
LRP1 CR.6–7 doublet = target: LRP1 CR.6–7 doublet
LRP1 CR.6–8 triplet = target: LRP1 CR.6–8 triplet
LRP1 CR.7–8 doublet = LRP1 CR.7–8 doublet (UniProt Q07954)
[3] = target: LRP1 cluster II (CR.3–10) (UniProt Q07954)
[4] = target: LRP1 cluster IV (CR.21–31) (UniProt Q07954)
[5] = target: low density lipoprotein receptor-related protein 1 (LRP1) (UniProt Q07954)
[6] = target: LRP1 CR doublet CR.5-6 (human)

Kd [1]: 172 nM
Kd [2]: 165 nM
Substance: B domain-deleted factor VIII (recombinant, product C) (natural protein)

Kd (LRP1 CR.6–7 doublet): 65.2 nM
Kd (LRP1 CR.6–8 triplet): 28.4 nM
Kd (LRP1 CR.7–8 doublet): 81.5 nM
Kd [3]: 11.3 nM
Kd [4]: 19.6 nM
Kd [5]: 22.8 nM
Substance: Recombinant full-length FVIII (product A) (natural protein)

Kd [6]: 131 nM
Substance: Recombinant full-length factor VIII (natural protein)

— publication PMC9804390
